Paper PMC5469476
pKd: −log10 of the molar value.

Experiments:
[1] = target: human glucagon-like peptide-1 receptor (GLP1R) with C-terminal 1D4 epitope, purified in nanodiscs (GLP1R-ND) (human) (UniProt P43220); assay: fluorescence polarisation; fluorescence anisotropy; 50 nM FAM-labeled peptide with 0 to 400 nM freshly prepared GLP1R-ND (or empty-ND); 20 mM Tris-HCl pH 7.4, 150 mM NaCl, EDTA, 3 mM MgCl2; room temperature; single-site binding model; three independent receptor preparations
[2] = target: human glucagon-like peptide-1 receptor (GLP1R) with C-terminal 1D4 epitope, purified in nanodiscs (GLP1R-ND) (human) (UniProt P43220)
[3] = target: human glucagon-like peptide-1 receptor (GLP1R) with C-terminal 1D4 epitope, purified in nanodiscs (GLP1R-ND) (human) (UniProt P43220); assay: fluorescence polarisation

Chain of UniProt P43220 (P43220 24-463): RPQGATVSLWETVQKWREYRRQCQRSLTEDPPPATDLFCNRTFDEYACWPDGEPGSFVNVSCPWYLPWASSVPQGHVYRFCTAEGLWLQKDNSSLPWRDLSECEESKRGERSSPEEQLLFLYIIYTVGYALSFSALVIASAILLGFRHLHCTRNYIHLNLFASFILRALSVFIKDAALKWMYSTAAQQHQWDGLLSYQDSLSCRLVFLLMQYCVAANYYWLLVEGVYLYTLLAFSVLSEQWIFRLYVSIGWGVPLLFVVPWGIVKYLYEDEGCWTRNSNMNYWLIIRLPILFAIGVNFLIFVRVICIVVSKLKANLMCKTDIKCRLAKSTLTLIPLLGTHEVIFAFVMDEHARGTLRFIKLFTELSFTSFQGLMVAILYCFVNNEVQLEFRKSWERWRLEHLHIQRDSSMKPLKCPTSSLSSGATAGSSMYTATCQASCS

pKd [1]	EC50 of cell-based cAMP assay (receptor on cells, details in S1 Supporting Information) [2]	Substance	pKd [3]
6.55	1.18 nM	FAM-labeled GLP-1-(7-37) (E21K, 5(6)-carboxyfluorescein on the lysine) (peptide)	
		FAM-labeled exendin-4 (L21K, 5(6)-carboxyfluorescein on the lysine) (peptide)	6.75
